Measured values as given in the nanobody polyreactivity screen of Harvey et al. (2022).

Experiment: yeast display, Sf9 membrane polyspecificity reagent, FACS + sequencing; frameworks hold sequencing errors
Method in brief: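 Synthetic nanobody libraries on Saccharomyces cerevisiae BJ5465 were galactose-induced for 36–48 hours, stained 1 hour at 4 °C with 10% biotinylated, detergent-solubilized Sf9 membrane reagent and enriched on streptavidin microbeads. FACS then separated cells into low and high (top ~1%) gates by anti-HA (expression) and streptavidin (reagent binding) fluorescence. Genes were colony-PCR amplified, MiSeq 2 × 250 sequenced and CDR-length filtered. A clone's polyreactivity label is that of its gate of origin.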

Sequence	polyreactivity (PSR sort gate)
QVQLVESGGGLVQAGGSLRLSCAASGITFDSNAMGWYRQAPGNERELVAAISSTGSTDYADSVKGRFTITRDNAKNTVYLQMNSLKPEDTAVYYCATGGRGGRRYEYWGQGTQVTVSS	low polyreactivity
QVQLVESGGCLVQAGGSLRLICAASGIIFWGYFMGWYRQAPAKERELVAAISRGGRTYYADSVKGRFTISRDNAKNTVYLQMNSLKPEDTAVDYCAARWGRSYLPQPFQFEYDYWGQGTQVTVSS	high polyreactivity
QVQLVESGGGLVQAGGSLRLSCAASGITIVWYAMGWYRLAPGKEREFVASISWRGGTTYYADSVKGRFTISRDNAKNTVDLQMNSLKPEDTAVYYCAARTRWWYRYDYWGQGTQVTVSS	high polyreactivity
QVQLVESGGGLVQAGGSLRLSCAASGFTFIRNAMGWYRQAPGKERELVAVITRSGGSTYYADSVKGRFTISRDNAKNTVYLQMNSLKPQDTAVYYCAATLRYSPRRRYDYWGQGTQVTVSS	high polyreactivity
QVQLVESGGGLVQAGGSLRLSCAASGLIFSHYTMGWYRQAPGKERELVAAITSSGGSTYYADSVKGRFTISRDNAKNTVYLQMNSLKPEDTAVYYCNVDYYEPSWYDDDYWGQGTQVTVSS	low polyreactivity
QVQLVESGGGLVQAGGSLRLSCAASGSTFESNTMGWYSQAPGKERELVAAISYSGGRTYYADSVKGRFTISRDNAKNTVYLQMNSLKPEDTAVYYCAARWSVSYQYWGQGTQVTVSS	high polyreactivity
QVQLVESVVGLVQAGGSLRLSCAASGRIFIIYAMGWYIQAPGKEREFVAAITSSGGSTYYGDSVKGRFTISRDNAKNTVYLQMNSLKPEDSAVYYCAARVTKLRTSSLRGYWGQGTQVTVSS	high polyreactivity
QVQLVESGGGLVQAGGSLRLSCAASGLIFSSNAMGWARQAPGKEREWVAAITSGGSTNYADSVKGRFTISRDNAHNTVYLQMNSLKPEDTAVYYCNAVSPHYFGGSYDYWGQGTQVTVSS	low polyreactivity
QVQLVESGGGLVQAGGSLRLICAASGSTFLVYSMGWYRQEPGKERELVAAISYSGGSTYYADSVKGRFTISRDNSKNTVYLQLNSLKPEDTAVYYCNVEPVDRWYYKYDYWGQGTEVTVSS	low polyreactivity
QVQLVESGGGLVQAGGSLRLSCAASGSTFTSYAMGWYRQAPGKERELVAAITYGSGTTYADSVKGRFTISRDNAKNTVYLQMNSLKPEDTAVYYCAADFYYPVLGHGFPTYEYDYWGQGTQVTVSS	low polyreactivity
QVQLVESGGGLVQAGGSLRLICAASGFTLGSNAMGWYRQAPGKERELVAAMSKSGGSTYYADSVKGRFTISRDNAKNTVYLQMNSLKPEDTAVYYCAARYLYQGYRYDYWGQGTQVTVSS	high polyreactivity
QVQLVESGGGLVQAGGSLRLSCAASGSTFSVYAMGLYRQAPGKERELVPAITWSGGSTYYADSVKGRFTISRDNAKNTVYLQMNSLKPEDTAVYYCNAERWLATPTVPWYLYNYWGQGTQVTVSS	low polyreactivity
QVQLVESGGGLVQAGGSLRLSCAASGFTFFDNAMGWYRQAPGKERELVAVISSGGRTYYADSVKGRFTISRDNAKNTVYLQMNSLTPEDTAVYYCNAARAQRVKYDYWGQGTQVTVSS	high polyreactivity
QVQLVESGGGLVQAGGSLRLSCAASGSTFSYNAMGWYRQAPGKERELVAAITSGSSTNYADSVKGRFTISRDNAKNTVYLQMNSLKPEDTAVYYCAADGYQDKYYWLENWVGYWGQGTQVTVSS	low polyreactivity
QVQLVESGGGLVQAGGSLRLSCAASGFIFYYNTMGWYRQAPGKERELVAAINSGGSTYYADSVKGRFTISRDNAKNTVYLQMNSLKPEDTAVYYCAKRYAVSSRYYYWGQGTQVTVSS	high polyreactivity
QVQLVESGGGLVQAGGSLRLSCAASGSIFPYNVMGWYRQAPGKERELVAVITGSTGRTYYADSVKGRFTISRDNAKNTVYLQMNSLKPEDTAVYYCAKRRYWAPYDYWGQGTQVTVSS	high polyreactivity
QVQLVESGGGLVQAGGSLRLSCAASGRTVGGNAMGWYRQAPGKERELVAAINRSGGTTYYADSVKGRFTISRDNAKNTVYLQMNSLKPEDTAVYYCAARRTVSATRMGYWGQGTQVTVSS	high polyreactivity
QVQLVESGGGLVQAGGSLRLSCAASGFIFGINAMGWYRQAPGKERELVATITSGGGTNYADSVKGRFTISRDNAKNTVYLQMNSLKPEDTAVYYCAAEEDYIYFYVSMDYWGQGTQVTVSS	low polyreactivity
QVQLVESGGGLVQAGGSLRLSCAASGRIFGVYALGWYRQAPGKERELVAVISSGGSTKYADSVKGRFTISRDTAKNTVYLQMNSLKPEDTAVYYCAAADYRFWSRYDYWGQGTQVTVSS	low polyreactivity
QVQLVESGGGLVQAGGSLRLSCAASGFTLPVYAMGWYRQAPGKERELVARITWSAGRTYYADSVKGRFTISRDNAKNTVYLQMNSLKPEDTAVYYCAAGPVSQQHSPGPHDYWGQGTQVTVSS	high polyreactivity
QVQLVESGGGLFQAGGSLRLSCAASGSIFDDYAMGWYRQAPGKERELVAAISSSGTSTYYADSVKGRFTISRDNAKNTVYLQMNSLKPEDTAVFYCAARSAILKSGYLMDYWGQGTQVTVSS	low polyreactivity
QVQLVESGGGLVQAGGSLRLSCAASGRTFHYNAMGWYRQAPGKERELVAAITRSGGSTYYADSLKGRFTISRVNAKNTVYLQMNSLKPEDTAVYYCAAGWRSVSVRYYGPSDYWGQGTQVTVSS	low polyreactivity

Sequence	polyreactivity (PSR sort gate)
QVQLVESGGGLVQAGGSLRLSCAASGYIFPYYAMGWYRQAPGKERELVAAISRSGGGTYYADSVKGRFTISRDNAKNTVYLQMNSLKPEDTAVYYCNRRSGHVHEYDYWGQGTQVTVSS	low polyreactivity
QVQLVESGGGLVQAGGSLRLSCAASGFTFRSYAMGWYRQAPGKEREFVAAINGRSGSTYADSVKGRFTISRDNAKNTVYLQMTSLKPEDTAVYYCAARVRRGSTQAQYYYWGQGTQVTVSS	high polyreactivity
QVQLVESGGGLVQAGGSLRLSCAASGRIFARYAMGWYRQAPGKERELVAAITNVGSTYADSVKGRFTISRDNAKNTVYLQMNSLKPEDTAVYYCAARSKYDQVRATFWLFDYWGQGTQVTVSS	low polyreactivity
QVQLVESGGGLVQAGCSLRLSCAATGRSFRRNTMGWYRQAPGKERELVAAISSSGSSTYYADSVKGRFTISRDNAKNTVFLQMNSLKPEDTAVYYCAARGRGQPFVRYDYWGQGTQVTVSS	high polyreactivity
QVQLVESGGGLVQAGGSLRLSCAASGRTFKTYAMVWYRQAPGKERELVAAISRDGRTYYADSVKGRFTISRDNAKNTVYLQMNSLKPEDTAVYYCNKRSYRNGDYWGQGTQVTVSS	low polyreactivity
QVQLVESGGGLVQAGGSLRLSCAASGFIFPVNARGGSRQAPGKERELHADISSDGSTNYADSVKGRFTISRDNAKNTVYLQMNSLKPEDTAVYYCAREDNLRHQSDSRYDYWGQGTQVTVSS	low polyreactivity
QVQLVESGGGLVQAGGSLRLSCAASGFTFKRNAMGWYRQAPGKERELVAAITKSGGSTYYADSVKGRFTISRDNAKNTVYLQMNSLQPEDTAVYYCNTVHYYRDYDYWGQGTQVTVSS	high polyreactivity
QVQLVESGGGLFQAGGSLRLSCAASGFIFSHYAMGWYRQAPGNDREFVATISKRGGSTTYADSVKGRFTISRDNAKNTVYFQMNSLKPVDTAVYDFAADYYPASAGFDYWGQGTQVTVSS	high polyreactivity
QVQLVESGGGLVQAGGSLRLSCAASGRIFPPYDMGWYRQATGKEREFVAAIDWTGGSTYYADSVKGRFTISRDNAKNTVYLQMNSLKPEDTAVYYCNAEQSYRGVGWRYDYWGQGTQVTVSS	low polyreactivity
QVQLVESGGGLVQAGGSLRLICAASGATFYFYAMGWYREAPGKERELVAAISKRGTSTYYADSVKWRFTISRDNAKNTVYLQLTSLKPEDTAVYFCAADAPRGYNYWGQGTQVTVSS	high polyreactivity
QVHLVESGGGLVQAGGSLRLSCAASGYIFGYYAMGWYRQAPGKERELVAAISQGGGDTYYADSVKGRFTISRDNAKYTVYLQMNSLKPEDTAVYYCAADYEQSYVLTGTFKYDYWGQGTQVTVSS	low polyreactivity
QVQLVESGGGLVQAGGSLRLSCAASGSTFYNNAMGWYRQAPGKERELVAAITASGGRTYYADSVKGRFTISRDNAKNTVYLQMNSLKPEDTAVYYCAADGHAGYPIDEYYYWGQGTQVTVSS	high polyreactivity
QVQLVESGGGLVQAGGSLRLSCAASGSTVYYNAMGWYRQAPGKEREFVAAINCRGGSTYYADSVKGRFTISRDNSKNTVYLQMNSLKPEDTAVYYCAAEEPSTYYYVRSGYDYHFWEMYSWGQGTQVTVSS	low polyreactivity
QVQLVESGGGLVQAGGSLRLSCAASGSTFYTNAMGWYRQAPGKERELVAAISYSGGGTYYADSVKGRFTISRDNAKNTVYLQMNSLKPEDTAVYYCAADTLQRAFVLYDYWGQGTQVTVSS	high polyreactivity
QVQLVESGGGLVQAGGSLRLSCAASGLTLAGYAMGWYRQAPGKERELVAAITASGVRTYYADSVKGRFTISRDNAKNTVYLQMNSLKPEDTAVYYCAAGVQTQRGGYAIYRPGLRYYWGQGTQVTVSS	high polyreactivity
QVQLVESGGGLVQAGGSLRLSCAASGFIFGIYAMGWYRQAPGKERELVAAISWRGDSTYYADSVKGRFTISRDNAKNTVYLQMNSLKPEDTAVYYCAAVYYKLVGWYSYRYGYWGQGTQVTVSS	low polyreactivity
QVQLVESGGGLVQAGGSLRLSCAASGRTFLPNPMGWYRQAPGKERELVAVITSGGSTNYADSVKGRFTISRDNAKNTVYLQMNSLKPEDTAVYYCAADRYSYFYIGYDYWGQGTQVTVSS	low polyreactivity
QVQLVESGGGLVQAGGSLRLSCAASGSILVYNAMGWYRQAPGKERELVAAISNTGRTYYAVSVKGRFTISRDIAKNTVYVQMNSLKPEDTAVYYCAAARTSTGSYRYEYWGQGTQGTVSS	high polyreactivity
QVQLVETGGGLVQAGGSLRLSCAASGSIFYRYAMGWYRQAPGKEREMVAAIRTRGGTYYADSVKGRFTISRDNAKNTVYLQMNSLKPEDTAVYYWNAVVPGCTAVDYDYWGQGTQVTVSS	high polyreactivity
QVHLVESGGGLVQAGGSLRLSCAPSGSIFRNYAMGWYRQAPGKESELVATISGRGGRTYYEDSVKGRFTISRDNAKNTVYLQMNSLKPEDTAVYYCAARGTLGKYSTASVYSGQGTQVTVSS	high polyreactivity
QVQLVESGGGLVQAGGSLRLSCAASGSLFGVNAMGWYRQAPGKERELVASISLSDDRTYYADSVKGRFTISRDIAKNTDYLQMNSLKPEDTAVYYCARRLLWYWDVDPSLAEYDYWGQGTQVTVSS	low polyreactivity
